As usually defined, the IC50 is the point on the concentration scale where inhibition reaches its midpoint. Broadly, the Kd is the free concentration of one partner at which half of the binding sites on the other are occupied at equilibrium, for simple one-to-one binding.

Results on three molecules are retold here after PMC7311396 (2020).

Non-standard residues stand in square brackets, D forms with d. No end group written: not given here. Phe(4-NO2) = N[C@@H](Cc1ccc([N+](=O)[O-])cc1)C(=O)O; pS = N[C@@H](COP(=O)(O)O)C(=O)O; βAla = NCCC(=O)O

B2: 14-3-3γ (natural protein)
chain: MVDREQLVQKARLAEQAERYDDMAAAMKNVTELNEPLSNEERNLLSVAYKNVVGARRSSWRVISSIEQKTSADGNEKKIEMVRAYREKIEKELEAVCQDVLSLLDNYLIKNCSETQYESKVFYLKMKGDYYRYLAEVATGEKRATVVESSEKAYSEAHEISKEHMQPTHPIRLGLALNYSVFYYEIQNAPEQACHLAKTAFDDAIAELDTLNEDSYKDSTLIMQLLRDNLTLWTSDQQDDDGGEGNN

For test [1], the target named is B2. The experiment in a line: FP; competition with FITC-BiExoS.
The target of test [2] is FITC-labeled 14-3-3.1 (FITC label (position not given); phosphoserine fixed in the middle, flanked by four varied positions on either side; non-canonical amino acids; C-terminal motif Nph-β-Ser-(β-Ala/β-Ser)-Nph; …). The experiment in a line: FP.
In test [3] the target is B2. The experiment in a line: FP.

B1: 14-3-3.12, unlabeled (peptide)
chain: KVF[thiazolylalanine][pS][Phe(4-NO2)]S[βAla][Phe(4-NO2)]K-NH2
modifications: not fully specified (residue 7); also: position 7 is a β-residue, identity not given here
On to B1, for which the IC50 in test [1] stood at 198 nM.
The molecule B2 gave a dissociation constant Kd in test [2] of 5.7 nM.

B3: FITC-labeled 14-3-3.12 (peptide)
chain: KVF[thiazolylalanine][pS][Phe(4-NO2)]S[βAla][Phe(4-NO2)]K-NH2
modifications: not fully specified (residue 7); also: FITC label, position not given here, position 7 is a β-residue, identity not given here
Molecule B3 showed a Kd in test [3] of 19 nM.
